Consider 94 variants from article PMC12102759.

To fix the notation:
B1: NYNRIN peptide 1032-1047 (Protein NYNRIN), 16-mer library wild type / NSP3 UBl1 (ORF1ab Nsp3a Ub1, residues 819-925) (parent)
chain 1: PSLSEEILRALSLHDP
chain 2: APTKVTFGDDTVIEVQGYKSVNITFELDERIDKVLNEKCSAYTVELGTEVNEFACVVADAVIKTLQPVSELLTPLGIDLDEWSMATYYLFDESGEFKLASHMYCSFY
B2: NEK9 peptide 738-753 (Serine/threonine-protein kinase Nek9), 16-mer library wild type / NSP9 (ORF1ab Nsp9, residues 4141-4253) (parent)
chain 1: SGLSIGTVFQSSSPGG
chain 2: NNELSPVALRQMSCAAGTTQTACTDDNALAYYNTTKGGRFVLALLSDLQDLKWARFPKSDGTGTIYTELEPPCRFVTDTPKGPKVKYLYFIKGLNNLNRGMVLGSLAATVRLQ
B3: NCOA2 peptide 1075-1090 (Nuclear receptor coactivator 2), 16-mer library wild type / NSP3 UBl1 (ORF1ab Nsp3a Ub1, residues 819-925) (parent)
chain 1: DEGALLDQLYLALRNF
chain 2: B1 chain 2
B4: NEK9 peptide 736-751 (Serine/threonine-protein kinase Nek9), 16-mer library wild type / NSP9 (ORF1ab Nsp9, residues 4141-4253) (parent)
chain 1: NSSGLSIGTVFQSSSP
chain 2: B2 chain 2

Variants of B1 are the subject of one assay. As to conditions: with NSP3 UBl1 (ORF1ab Nsp3a Ub1, residues 819-925); bait immobilised on MaxiSorp plates (10 µg), library pre-cleared on GST, 2 h binding at 4 °C, five washes; one round per day, days 1-4; value from days 2 and 3; keep out of graded; scale: average fractional NGS count over selection days 2 and 3.
Turning to chain 1 PSLSEEILRALSPHDP [chain 1 L13P], the screen value turned out to be 0.

Consider chain 1 PSLSEEIHRALSLHDP [chain 1 L8H], for which the screen value amounted to 0.

Take chain 1 PRLSEEILRALSLHDP [chain 1 S2R]: the screen value was 0.

The variants in a further assay derive from B2. As to conditions: with NSP9 (ORF1ab Nsp9, residues 4141-4253); bait immobilised on MaxiSorp plates (10 µg), library pre-cleared on GST, 2 h binding at 4 °C, five washes; one round per day, days 1-4; value from days 2 and 3; keep out of graded; scale: average fractional NGS count over selection days 2 and 3.
Consider chain 1 SGLSEGTVFQSSSPGG [chain 1 I5E], for which the screen value was determined as 0.

chain 1 SLLSIGTVFQSSSPGG [chain 1 G2L]: the screen value amounted to 0.

Regarding chain 1 SILSIGTVFQSSSPGG [chain 1 G2I], the screen value turned out to be 0.

With chain 1 SVLSIGTVFQSSSPGG [chain 1 G2V], the screen value came out at 0.

As to chain 1 SGLWIGTVFQSSSPGG [chain 1 S4W], the screen value is 0.

chain 1 SGLDIGTVFQSSSPGG [chain 1 S4D]: the screen value came to 0.

For chain 1 SGLPIGTVFQSSSPGG [chain 1 S4P], the screen value turned out to be 0.

On to chain 1 SGLKIGTVFQSSSPGG [chain 1 S4K], for which the screen value came to 0.

With chain 1 SGLYIGTVFQSSSPGG [chain 1 S4Y], the screen value was 0.

For chain 1 SGVSIGTVFQSSSPGG [chain 1 L3V], the screen value turned out to be 0.000196.

Regarding chain 1 SGWSIGTVFQSSSPGG [chain 1 L3W], the screen value came out at 0.

For the variant chain 1 SGLSIGTVFQSSSTGG [chain 1 P14T], the screen value was determined as 0.

As for chain 1 SGLSIGTVFQSSSEGG [chain 1 P14E], the screen value worked out at 2.37e-05.

As for chain 1 SGLSIGTVFQSSSRGG [chain 1 P14R], the screen value came to 0.

Regarding chain 1 SGLSIGTVFQSSNPGG [chain 1 S13N], the screen value was 2.85e-05.

Turning to chain 1 SGLSIGTVFQSSQPGG [chain 1 S13Q], the screen value turned out to be 0.

As for chain 1 SGLSIGTVFQSSVPGG [chain 1 S13V], the screen value came out at 0.

For the variant chain 1 SGLSIGTVFQSSGPGG [chain 1 S13G], the screen value was determined as 0.

As for chain 1 SGLSIGTVFQNSSPGG [chain 1 S11N], the screen value worked out at 0.

Regarding chain 1 SGLSIGTVFQDSSPGG [chain 1 S11D], the screen value was found to be 2.69e-05.

Regarding chain 1 SGLSIGTVFQASSPGG [chain 1 S11A], the screen value is 0.

In the case of chain 1 SGLSIGTVFQTSSPGG [chain 1 S11T], the screen value came to 0.

Consider chain 1 SGLSIGTEFQSSSPGG [chain 1 V8E], for which the screen value was determined as 2.09e-05.

As to chain 1 SGLSIGTGFQSSSPGG [chain 1 V8G], the screen value turned out to be 0.

Consider chain 1 SGLSIGTHFQSSSPGG [chain 1 V8H], for which the screen value stood at 0.000119.

Take chain 1 SGLSIGTAFQSSSPGG [chain 1 V8A]: the screen value amounted to 3.17e-05.

In the case of chain 1 SGLSIGTQFQSSSPGG [chain 1 V8Q], the screen value was 0.000101.

As for chain 1 SGLSIGTDFQSSSPGG [chain 1 V8D], the screen value is 0.000118.

As to chain 1 SGLSIGTPFQSSSPGG [chain 1 V8P], the screen value came to 0.

As to chain 1 SGLSIGTKFQSSSPGG [chain 1 V8K], the screen value was 0.

With chain 1 SGLSIGQVFQSSSPGG [chain 1 T7Q], the screen value was 0.

On to chain 1 SGLSIGEVFQSSSPGG [chain 1 T7E], for which the screen value came out at 0.000776.

On to chain 1 SGLSIGSVFQSSSPGG [chain 1 T7S], for which the screen value is 0.

Regarding chain 1 SGLSIGPVFQSSSPGG [chain 1 T7P], the screen value is 0.000499.

With chain 1 SGLSIGDVFQSSSPGG [chain 1 T7D], the screen value stood at 0.

For the variant chain 1 SGLSIGTVFQSESPGG [chain 1 S12E], the screen value was 0.

Take chain 1 SGLSIGTVFQSISPGG [chain 1 S12I]: the screen value worked out at 0.

For the variant chain 1 SGLSIGTVFQSDSPGG [chain 1 S12D], the screen value came to 0.

As to chain 1 SGLSIGTVFQSSSPSG [chain 1 G15S], the screen value turned out to be 0.

Turning to chain 1 SGLSIGTVFQSSSPEG [chain 1 G15E], the screen value stood at 0.

For chain 1 SGLSIGTVFQSSSPAG [chain 1 G15A], the screen value was found to be 0.

Regarding chain 1 SGLSIGTVFQSSSPWG [chain 1 G15W], the screen value was 0.

Regarding chain 1 SGLSIGTVFQSSSPVG [chain 1 G15V], the screen value was determined as 0.000116.

Turning to chain 1 SGLSIGTVFQSSSPQG [chain 1 G15Q], the screen value came to 4.92e-05.

As to chain 1 SGLSIGTVFQSSSPDG [chain 1 G15D], the screen value came out at 0.

For the variant chain 1 DGLSIGTVFQSSSPGG [chain 1 S1D], the screen value turned out to be 0.000541.

As for chain 1 HGLSIGTVFQSSSPGG [chain 1 S1H], the screen value was found to be 0.

As for chain 1 EGLSIGTVFQSSSPGG [chain 1 S1E], the screen value was determined as 2.09e-05.

As to chain 1 YGLSIGTVFQSSSPGG [chain 1 S1Y], the screen value was found to be 0.

In the case of chain 1 NGLSIGTVFQSSSPGG [chain 1 S1N], the screen value worked out at 0.000364.

With chain 1 MGLSIGTVFQSSSPGG [chain 1 S1M], the screen value was found to be 1.76e-05.

Regarding chain 1 LGLSIGTVFQSSSPGG [chain 1 S1L], the screen value came out at 0.

chain 1 SGLSIGTVFISSSPGG [chain 1 Q10I]: the screen value is 0.

On to chain 1 SGLSIGTVFESSSPGG [chain 1 Q10E], for which the screen value stood at 0.000217.

The variants in the next assay derive from B3. As to conditions: with NSP3 UBl1 (ORF1ab Nsp3a Ub1, residues 819-925); bait immobilised on MaxiSorp plates (10 µg), library pre-cleared on GST, 2 h binding at 4 °C, five washes; one round per day, days 1-4; value from days 2 and 3; keep out of graded; scale: average fractional NGS count over selection days 2 and 3.
As for chain 1 DEGALLDQLYLALRVF [chain 1 N15V], the screen value stood at 0.00016.

Turning to chain 1 DEGALLDQLYLALRFF [chain 1 N15F], the screen value was determined as 0.113.

On to chain 1 DEGALLDQLYLALRHF [chain 1 N15H], for which the screen value came out at 5.47e-06.

As to chain 1 DEGALLDQLYLALRAF [chain 1 N15A], the screen value is 1.68e-05.

Regarding chain 1 DEGALLDQLYLALRLF [chain 1 N15L], the screen value worked out at 0.000158.

As to chain 1 DEGALLDQLYLALRIF [chain 1 N15I], the screen value amounted to 2.73e-05.

In the case of chain 1 DEGALLDQTYLALRNF [chain 1 L9T], the screen value is 0.

For chain 1 DEGALLDQIYLALRNF [chain 1 L9I], the screen value is 7.34e-06.

chain 1 DEGALLDQHYLALRNF [chain 1 L9H]: the screen value worked out at 0.

Consider chain 1 DEGALLDQVYLALRNF [chain 1 L9V], for which the screen value amounted to 1.9e-05.

For chain 1 DEGALLDQKYLALRNF [chain 1 L9K], the screen value worked out at 0.

As for chain 1 DEGALLDGLYLALRNF [chain 1 Q8G], the screen value stood at 8.24e-06.

Consider chain 1 DEGALLDPLYLALRNF [chain 1 Q8P], for which the screen value turned out to be 1.57e-05.

Take chain 1 DNGALLDQLYLALRNF [chain 1 E2N]: the screen value is 0.

chain 1 DEGYLLDQLYLALRNF [chain 1 A4Y]: the screen value was found to be 0.00107.

With chain 1 DEGLLLDQLYLALRNF [chain 1 A4L], the screen value turned out to be 7.15e-06.

For the variant chain 1 DEGALLDQLYFALRNF [chain 1 L11F], the screen value worked out at 0.

For chain 1 DEGALLDQLYQALRNF [chain 1 L11Q], the screen value was determined as 0.

On to chain 1 DEGALLDQLYSALRNF [chain 1 L11S], for which the screen value turned out to be 0.000175.

On to chain 1 DEGALLDQLYMALRNF [chain 1 L11M], for which the screen value is 0.

In the case of chain 1 DEGALLDQLYLWLRNF [chain 1 A12W], the screen value was 0.

For the variant chain 1 DENALLDQLYLALRNF [chain 1 G3N], the screen value was 7.33e-06.

As for chain 1 DERALLDQLYLALRNF [chain 1 G3R], the screen value was 2.99e-05.

Take chain 1 DEGALLDQLYLALKNF [chain 1 R14K]: the screen value turned out to be 0.

Regarding chain 1 DEGALLDQLYLALFNF [chain 1 R14F], the screen value came to 2.17e-05.

With chain 1 DEGALLDQLYLALNNF [chain 1 R14N], the screen value came to 2.08e-05.

Consider chain 1 DEGALLDQLYLALYNF [chain 1 R14Y], for which the screen value came to 5.46e-06.

With chain 1 DEGALLDQLYLALDNF [chain 1 R14D], the screen value came out at 0.000475.

In the case of chain 1 DEGALGDQLYLALRNF [chain 1 L6G], the screen value amounted to 0.

Turning to chain 1 DEGALDDQLYLALRNF [chain 1 L6D], the screen value is 0.

Regarding chain 1 DEGALEDQLYLALRNF [chain 1 L6E], the screen value was found to be 0.

In the next assay the parent is B4. As to conditions: with NSP9 (ORF1ab Nsp9, residues 4141-4253); bait immobilised on MaxiSorp plates (10 µg), library pre-cleared on GST, 2 h binding at 4 °C, five washes; one round per day, days 1-4; value from days 2 and 3; keep out of graded; scale: average fractional NGS count over selection days 2 and 3.
Consider chain 1 NSSGLSIGTVPQSSSP [chain 1 F11P], for which the screen value was 0.0001.

As for chain 1 NSSGLSIGTVRQSSSP [chain 1 F11R], the screen value came to 0.

Take chain 1 NSSGLSIGTVEQSSSP [chain 1 F11E]: the screen value amounted to 0.000183.

Turning to chain 1 NSSGLSIGTVMQSSSP [chain 1 F11M], the screen value amounted to 0.000187.

On to chain 1 NSSGLSIGTVIQSSSP [chain 1 F11I], for which the screen value was found to be 0.000239.

Turning to chain 1 NSSGLSIGTVGQSSSP [chain 1 F11G], the screen value turned out to be 0.000245.
